Reference: US20070003557A1, “Method for treating cancer using premedication” (priority 2005, published 2007)
Entries after “also recorded” stand apart in the source; their conditions may differ.

Key:
Type in all cases: in vivo, human
[1] = Infusion reactions caused by KM-871 in patients, premedication with Benadryl and Zantac (Example 1); settings: per patient; for Infusion reaction, 1st administration / Infusion reaction, 2nd administration / Infusion reaction, 3rd administration: KM-871 40 mg/m^2 every two weeks, Benadryl 50 mg and Zantac 50 mg parenterally 30 min before, at the administrations named in column Pre-medication; for Infusion reaction, Test: KM-871 test dose 10 mg/m^2 two weeks prior to 1st administration
Method: The following test was performed to suppress the infusion reactions caused by human anti-GD3 chimeric antibody.
A human chimeric antibody which specifically binds to ganglioside GD3, wherein the human chimeric antibody comprises the H chain V region of the antibody comprising the amino acid sequence represented by SEQ ID NO:3 and the L chain V region of the antibody comprising the amino acid sequence represented by SEQ ID NO:4 was produced according to U.S. Pat. No. 6,437,098 (hereinafter referred to as ‘KM-871’).
(§1) KM-871 was administered to each patient with a dose of 40 mg/m^2 once every two weeks for four times as a general rule. Benadryl (50 mg) and Zantac (50 mg) were parenterally administered to the patient 30 minutes prior to each administration of KM-871 except for the first administration.
(§2) As a test dose, KM-871 (10 mg/m^2), was administered to the patient two weeks prior to the first administration of KM-871 to confirm its safeness.

[2] = Infusion reactions caused by KM-871 in patients, premedication with Sigulair and Zertec (Example 2); settings: per patient
Method: (§3) The following test was performed by using various compounds to suppress the infusion reactions caused by KM-871.
KM-871 was administered to each patient with a dose of 40 mg/m^2 once every two weeks for four times as a general rule. Sigulair (10 mg) and Zertec (10 mg) were orally administered to the patient 30 minutes prior to each administration of KM-871 except for the first administration.
as §2

[3] = Infusion reactions caused by KM-871 in patients, premedication with Sigulair, Zertec, Benadryl and Zantac (Example 3); settings: per patient, KM-871 40 mg/m^2 every two weeks, Sigulair 10 mg, Zertec 10 mg orally and Benadryl 50 mg, Zantac 50 mg parenterally 30 min before, at the administrations named in column Pre-medication
Method: as §3
as §1, with “rule. Sigulair (10 mg) and Zertec (10 mg) were orally administered and” for “rule.”
as §2

[4] = Infusion reactions caused by KM-871 in patients, premedication with Sigulair, Zertec, Benadryl, Zantac and Dexametazone (Example 4); settings: one patient
Method: as §3
as §1, with “or 80 mg/m^2” for “once”, “rule. Sigulair (10 mg) and Zertec (10 mg) were orally administered and” for “rule.”, “Benadryl (50 mg), Zantac” for “Benadryl”, “Dexametazone (20” for “Zantac (50”
As a test dose, KM-871 (10 mg/m^2), was administered to the patient two weeks prior to the first administration of KM-871 to confirm its safeness. When toxicity or infusion reactions are observed to the patient by the administration, the administration was withdrawn.

[5] = Infusion reactions caused by KM-871 in one patient, premedication before second and third administration (Example 5)
Method: On the day of the second administration of KM-871, Benadryl (100 mg), Zantac (50 mg), Singulair (10 mg), Zyrtec (10 mg) and Dexametazone (10 mg) were administered to the patient followed by the administration of KM-871.
Prior to the third administration of KM-871, Benadryl (100 mg), Zantac (50 mg), Singulair (10 mg), and Zyrtec (10 mg), were administered to the patient.

[6] = premedication at 1st administration
[7] = premedication at 1st and 2nd administration
[8] = premedication at 2nd administration
[9] = KM-871 40 mg/m^2 every two weeks, Sigulair 10 mg and Zertec 10 mg orally 30 min before, at the administrations named in column Pre-medication
[10] = KM-871 test dose 10 mg/m^2 two weeks prior to 1st administration

B1: KM-871: human chimeric antibody binding ganglioside GD3; H chain V region SEQ ID NO:3, L chain V region SEQ ID NO:4; produced per U.S. Pat. No. 6,437,098 (antibody, V domains shown)
VH: EVQLVESGGDFVQPGGSLRVSCAASGFAFSHYAMSWVRQAPGKGLEWVAYISSGGSGTYYSDSVKGRFTISRDNSKNTLYLQMRSLRAEDSAVYFCTRVKLGTYYFDSWGQGTLLTVSS
VL: DIQMTQSPSSLSASVGDRVTITCSASQDISNYLNWYQQKPDKAPKLLIFYSSNLHSGVPSRFSGGGSGTDYTLTISSLQPEDIATYFCHQYSKLPWTFGQGTKVEIKR
modifications: Artificial Sequence H chain V region of the antibody; Artificial Sequence L chain V region of the antibody
[1]; [6]
  Infusion reaction, 1st administration: ARMS, LEGS, ERYTHEMA; also recorded: FEVER; also recorded: RIGORS
  Infusion reaction, 2nd administration: CHILLS; also recorded: FEVER
  Infusion reaction, 3rd administration: HIVES
  Infusion reaction, Test: FEVER; also recorded: HIVES
[1]; [7]
  Infusion reaction, 1st administration: FULLNESS IN THROAT
  Infusion reaction, 2nd administration: HIVES
  Infusion reaction, Test: ITCHING
[1]; [8]
  Infusion reaction, 1st administration: ITCHING; also recorded: RIGORS
  Infusion reaction, 3rd administration: CHILLS
[2]; [9]
  Infusion reaction, 1st administration: CHILLS; also recorded: THROAT SWELLING; also recorded: ITCHING/HIVES
  Infusion reaction, 2nd administration: HIVES
  Infusion reaction, 3rd administration: HIVES ON HANDS
[2]; [10]
  Infusion reaction, Test: FACIAL FLUSHING; also recorded: HIVES/ITCHING
[3]
  Infusion reaction, 2nd administration: ITCHING
[3]; premedication at 1st, 2nd and 3rd administrations
  Infusion reaction, 1st administration: HIVES; also recorded: ITCHING
[3]; premedication at 2nd and 4th administrations
  Infusion reaction, 1st administration: FEVER; also recorded: HIVES/ITCHING
[3]; premedication at 2nd, 3rd and 4th administrations
  Infusion reaction, 1st administration: FEVER
[4]; KM-871 40 mg/m^2 or 80 mg/m^2 every two weeks, premedication (Sigulair, Zertec, Benadryl, Zantac, Dexametazone) at 2nd administration
  Infusion reaction, 1st administration: HIVES
[4]; [10]
  Infusion reaction, Test: RASH
[5]; 4 mg/m^2 of KM-871, no premedication stated
  Infusion reactions at the first administration: Rash, Urticaria, Itching
[5]; premedication Benadryl 100 mg, Zantac 50 mg, Singulair 10 mg and Zyrtec 10 mg before KM-871
  Infusion reactions after the third administration: infusion reactions did not appear
[5]; premedication Benadryl 100 mg, Zantac 50 mg, Singulair 10 mg, Zyrtec 10 mg and Dexametazone 10 mg the same day before KM-871
  Infusion reactions after the second administration: infusion reactions did not appear
